Measurements: paper PMC10786891, “Massively parallel profiling of RNA-targeting CRISPR-Cas13d”

T1: EsCas13d, nuclease-dead (Eubacterium siraeum, UniProt B0MS50, R295A;H300A;R849A;H854A)
T1 sequence: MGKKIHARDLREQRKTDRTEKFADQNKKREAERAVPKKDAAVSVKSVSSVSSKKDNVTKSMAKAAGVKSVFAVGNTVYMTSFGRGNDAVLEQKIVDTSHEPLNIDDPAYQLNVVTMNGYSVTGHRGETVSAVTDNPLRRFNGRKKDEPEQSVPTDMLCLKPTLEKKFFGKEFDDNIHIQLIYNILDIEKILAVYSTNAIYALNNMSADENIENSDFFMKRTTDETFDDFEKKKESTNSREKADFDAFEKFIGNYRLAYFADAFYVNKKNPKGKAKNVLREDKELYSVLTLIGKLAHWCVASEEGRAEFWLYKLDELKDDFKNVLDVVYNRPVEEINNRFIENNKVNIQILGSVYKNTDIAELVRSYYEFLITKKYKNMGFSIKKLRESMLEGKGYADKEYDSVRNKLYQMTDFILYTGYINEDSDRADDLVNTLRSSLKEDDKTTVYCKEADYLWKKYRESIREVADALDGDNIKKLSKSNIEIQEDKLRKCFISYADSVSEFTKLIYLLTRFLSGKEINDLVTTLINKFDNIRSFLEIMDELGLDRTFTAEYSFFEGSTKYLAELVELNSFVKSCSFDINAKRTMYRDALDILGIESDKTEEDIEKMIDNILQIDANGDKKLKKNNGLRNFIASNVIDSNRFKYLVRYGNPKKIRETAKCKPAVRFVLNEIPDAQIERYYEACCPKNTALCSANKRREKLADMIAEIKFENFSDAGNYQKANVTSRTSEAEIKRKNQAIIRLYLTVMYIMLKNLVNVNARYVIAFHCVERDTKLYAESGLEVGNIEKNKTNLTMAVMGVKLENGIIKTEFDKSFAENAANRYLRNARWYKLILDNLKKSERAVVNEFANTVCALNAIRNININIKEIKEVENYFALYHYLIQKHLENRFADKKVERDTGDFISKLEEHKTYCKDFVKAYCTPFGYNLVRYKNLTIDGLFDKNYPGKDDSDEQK


Target: T1, EsCas13d, nuclease-dead
Experiment: crRNA (strand 1, pre-loaded); Mg2+; 40 mM Tris-HCl pH 7.5, 150 mM NaCl, 6 mM MgCl2, 1 mM DTT, 0.1% Tween-20, 0.2 mg/ml BSA; 25 C; 10 min per concentration, then washed
Details: tags: His6-TwinStrep-SUMO cleaved; N-terminal SNAP kept (SNAP-Surface 488); label: 3' end held by stalled T7 RNA polymerase

Binder	Kd
target 1 G5C,C21U (mixed) RNA 1: CACCCGUGCAAAAAUGCAGGGGUCUAAAACUGAGCGGAUAACCUCUCUAUGG RNA 2: GGGAAUGGAUCCACAUCUACGAAUUCGUACUAUAGAGAGGUUAUCCCCUCACCGAGAUCGGAAGAGCACACGU	7.1 ± 0.4 nM
target 1 A9G,G15U (mixed) RNA 1: CACCCGUGCAAAAAUGCAGGGGUCUAAAACUGAGCGGAUAACCUCUCUAUGG RNA 2: GGGAAUGGAUCCACAUCUACGAAUUCGUACCAUAGAUAGGUUGUCCGCUCACCGAGAUCGGAAGAGCACACGU	17.3 ± 1.4 nM
target 1 insC 3' of 20,insU 3' of 1 (mixed) RNA 1: CACCCGUGCAAAAAUGCAGGGGUCUAAAACUGAGCGGAUAACCUCUCUAUGG RNA 2: GGGAAUGGAUCCACAUCUACGAAUUCGUACCACUAGAGAGGUUAUCCGCUCAUCCGAGAUCGGAAGAGCACACGU	7.34 ± 0.35 nM
target 2 MT 5'PFS ACA 3'PFS CGC (mixed) RNA 1: CACCCGUGCAAAAUUGCAGGGGUCUAAAACCUUCUCCAAAUUGUUUCAUCCU RNA 2: GGGAAUGGAUCCACAUCUACGAAUUCACAAGGAUGAAACAAUUUGGAGAAGCGCAGAUCGGAAGAGCACACGU	4.9 ± 0.7 nM
target 2 MT 5'PFS CAU 3'PFS UUU (mixed) RNA 1: CACCCGUGCAAAAUUGCAGGGGUCUAAAACCUUCUCCAAAUUGUUUCAUCCU RNA 2: GGGAAUGGAUCCACAUCUACGAAUUCCAUAGGAUGAAACAAUUUGGAGAAGUUUAGAUCGGAAGAGCACACGU	6.2 ± 0.7 nM
target 2 MT 5'PFS UGG 3'PFS AAC (mixed) RNA 1: CACCCGUGCAAAAUUGCAGGGGUCUAAAACCUUCUCCAAAUUGUUUCAUCCU RNA 2: GGGAAUGGAUCCACAUCUACGAAUUCUGGAGGAUGAAACAAUUUGGAGAAGAACAGAUCGGAAGAGCACACGU	7.1 ± 0.6 nM
target 2 MT 5'PFS ACA 3'PFS AGC (mixed) RNA 1: CACCCGUGCAAAAUUGCAGGGGUCUAAAACCUUCUCCAAAUUGUUUCAUCCU RNA 2: GGGAAUGGAUCCACAUCUACGAAUUCACAAGGAUGAAACAAUUUGGAGAAGAGCAGAUCGGAAGAGCACACGU	4.7 ± 1.1 nM
target 2 MT 5'PFS ACA 3'PFS CGG (mixed) RNA 1: CACCCGUGCAAAAUUGCAGGGGUCUAAAACCUUCUCCAAAUUGUUUCAUCCU RNA 2: GGGAAUGGAUCCACAUCUACGAAUUCACAAGGAUGAAACAAUUUGGAGAAGCGGAGAUCGGAAGAGCACACGU	5.2 ± 0.9 nM
target 2 MT 5'PFS UUA 3'PFS UUU (mixed) RNA 1: CACCCGUGCAAAAUUGCAGGGGUCUAAAACCUUCUCCAAAUUGUUUCAUCCU RNA 2: GGGAAUGGAUCCACAUCUACGAAUUCUUAAGGAUGAAACAAUUUGGAGAAGUUUAGAUCGGAAGAGCACACGU	~70 nM
target 2 MT 5'PFS GUC 3'PFS UAC (mixed) RNA 1: CACCCGUGCAAAAUUGCAGGGGUCUAAAACCUUCUCCAAAUUGUUUCAUCCU RNA 2: GGGAAUGGAUCCACAUCUACGAAUUCGUCAGGAUGAAACAAUUUGGAGAAGUACAGAUCGGAAGAGCACACGU	15.3 ± 2.4 nM
target 2 MT 5'PFS CAU 3'PFS UUC (mixed) RNA 1: CACCCGUGCAAAAUUGCAGGGGUCUAAAACCUUCUCCAAAUUGUUUCAUCCU RNA 2: GGGAAUGGAUCCACAUCUACGAAUUCCAUAGGAUGAAACAAUUUGGAGAAGUUCAGAUCGGAAGAGCACACGU	9.1 ± 1.6 nM
target 2 MT 5'PFS CGC 3'PFS CUC (mixed) RNA 1: CACCCGUGCAAAAUUGCAGGGGUCUAAAACCUUCUCCAAAUUGUUUCAUCCU RNA 2: GGGAAUGGAUCCACAUCUACGAAUUCCGCAGGAUGAAACAAUUUGGAGAAGCUCAGAUCGGAAGAGCACACGU	9.6 ± 1.7 nM
target 2 MT 5'PFS GUC 3'PFS UAA (mixed) RNA 1: CACCCGUGCAAAAUUGCAGGGGUCUAAAACCUUCUCCAAAUUGUUUCAUCCU RNA 2: GGGAAUGGAUCCACAUCUACGAAUUCGUCAGGAUGAAACAAUUUGGAGAAGUAAAGAUCGGAAGAGCACACGU	9.3 ± 1.4 nM
target 2 MT 5'PFS UGU 3'PFS AUC (mixed) RNA 1: CACCCGUGCAAAAUUGCAGGGGUCUAAAACCUUCUCCAAAUUGUUUCAUCCU RNA 2: GGGAAUGGAUCCACAUCUACGAAUUCUGUAGGAUGAAACAAUUUGGAGAAGAUCAGAUCGGAAGAGCACACGU	16.6 ± 2.6 nM
target 2 MT 5'PFS AGA 3'PFS UCC (mixed) RNA 1: CACCCGUGCAAAAUUGCAGGGGUCUAAAACCUUCUCCAAAUUGUUUCAUCCU RNA 2: GGGAAUGGAUCCACAUCUACGAAUUCAGAAGGAUGAAACAAUUUGGAGAAGUCCAGAUCGGAAGAGCACACGU	43 ± 15 nM
target 2 MT 5'PFS CAU 3'PFS UUG (mixed) RNA 1: CACCCGUGCAAAAUUGCAGGGGUCUAAAACCUUCUCCAAAUUGUUUCAUCCU RNA 2: GGGAAUGGAUCCACAUCUACGAAUUCCAUAGGAUGAAACAAUUUGGAGAAGUUGAGAUCGGAAGAGCACACGU	4.5 ± 0.4 nM
target 2 MT 5'PFS GUC 3'PFS UAU (mixed) RNA 1: CACCCGUGCAAAAUUGCAGGGGUCUAAAACCUUCUCCAAAUUGUUUCAUCCU RNA 2: GGGAAUGGAUCCACAUCUACGAAUUCGUCAGGAUGAAACAAUUUGGAGAAGUAUAGAUCGGAAGAGCACACGU	18 ± 5 nM
target 2 MT 5'PFS ACC 3'PFS CAC (mixed) RNA 1: CACCCGUGCAAAAUUGCAGGGGUCUAAAACCUUCUCCAAAUUGUUUCAUCCU RNA 2: GGGAAUGGAUCCACAUCUACGAAUUCACCAGGAUGAAACAAUUUGGAGAAGCACAGAUCGGAAGAGCACACGU	7.4 ± 1.6 nM
target 2 MT 5'PFS ACA 3'PFS AGG (mixed) RNA 1: CACCCGUGCAAAAUUGCAGGGGUCUAAAACCUUCUCCAAAUUGUUUCAUCCU RNA 2: GGGAAUGGAUCCACAUCUACGAAUUCACAAGGAUGAAACAAUUUGGAGAAGAGGAGAUCGGAAGAGCACACGU	4.9 ± 0.6 nM
target 2 MT 5'PFS AGA 3'PFS UCG (mixed) RNA 1: CACCCGUGCAAAAUUGCAGGGGUCUAAAACCUUCUCCAAAUUGUUUCAUCCU RNA 2: GGGAAUGGAUCCACAUCUACGAAUUCAGAAGGAUGAAACAAUUUGGAGAAGUCGAGAUCGGAAGAGCACACGU	14 ± 4 nM
target 2 MT 5'PFS AGA 3'PFS UCA (mixed) RNA 1: CACCCGUGCAAAAUUGCAGGGGUCUAAAACCUUCUCCAAAUUGUUUCAUCCU RNA 2: GGGAAUGGAUCCACAUCUACGAAUUCAGAAGGAUGAAACAAUUUGGAGAAGUCAAGAUCGGAAGAGCACACGU	8.2 ± 1.8 nM
target 2 MT 5'PFS GUC 3'PFS UAG (mixed) RNA 1: CACCCGUGCAAAAUUGCAGGGGUCUAAAACCUUCUCCAAAUUGUUUCAUCCU RNA 2: GGGAAUGGAUCCACAUCUACGAAUUCGUCAGGAUGAAACAAUUUGGAGAAGUAGAGAUCGGAAGAGCACACGU	14 ± 2 nM
target 2 MT 5'PFS ACA 3'PFS AGA (mixed) RNA 1: CACCCGUGCAAAAUUGCAGGGGUCUAAAACCUUCUCCAAAUUGUUUCAUCCU RNA 2: GGGAAUGGAUCCACAUCUACGAAUUCACAAGGAUGAAACAAUUUGGAGAAGAGAAGAUCGGAAGAGCACACGU	3.6 ± 1.3 nM
target 2 MT 5'PFS CAU 3'PFS UUA (mixed) RNA 1: CACCCGUGCAAAAUUGCAGGGGUCUAAAACCUUCUCCAAAUUGUUUCAUCCU RNA 2: GGGAAUGGAUCCACAUCUACGAAUUCCAUAGGAUGAAACAAUUUGGAGAAGUUAAGAUCGGAAGAGCACACGU	5.2 ± 0.9 nM
target 2 MT 5'PFS UGU 3'PFS AUA (mixed) RNA 1: CACCCGUGCAAAAUUGCAGGGGUCUAAAACCUUCUCCAAAUUGUUUCAUCCU RNA 2: GGGAAUGGAUCCACAUCUACGAAUUCUGUAGGAUGAAACAAUUUGGAGAAGAUAAGAUCGGAAGAGCACACGU	9.9 ± 1.6 nM
target 2 MT 5'PFS UAU 3'PFS GAG (mixed) RNA 1: CACCCGUGCAAAAUUGCAGGGGUCUAAAACCUUCUCCAAAUUGUUUCAUCCU RNA 2: GGGAAUGGAUCCACAUCUACGAAUUCUAUAGGAUGAAACAAUUUGGAGAAGGAGAGAUCGGAAGAGCACACGU	~50 nM
target 2 MT 5'PFS GCU 3'PFS UAU (mixed) RNA 1: CACCCGUGCAAAAUUGCAGGGGUCUAAAACCUUCUCCAAAUUGUUUCAUCCU RNA 2: GGGAAUGGAUCCACAUCUACGAAUUCGCUAGGAUGAAACAAUUUGGAGAAGUAUAGAUCGGAAGAGCACACGU	11 ± 4 nM
target 2 MT 5'PFS CGC 3'PFS CUG (mixed) RNA 1: CACCCGUGCAAAAUUGCAGGGGUCUAAAACCUUCUCCAAAUUGUUUCAUCCU RNA 2: GGGAAUGGAUCCACAUCUACGAAUUCCGCAGGAUGAAACAAUUUGGAGAAGCUGAGAUCGGAAGAGCACACGU	8 ± 1.9 nM
